{"source": "patent US20250188188A1", "binders": {"B1": {"name": "recombinant TNT020 (antibody, from another filing, V domains shown)", "VH": "QVQLVQSGAEVKKPGASVKLSCTASGFNIKDDYIHWVKQAPGQGLEWIGRIDPADGHTKYAPKFQVKVTITADTSTSTAYLELSSLRSEDTAVYYCARYGYGREVFDYWGQGTTVTVSS", "VL": "DIVLTQSPDSLAVSLGERATISCKASQSVDYDGDSYMNWYQQKPGQPPKILIYDASNLESGIPARFSGSGSGTDFTLTISSLEPEDFAIYYCQQSNEDPWTFGGGTKVEIKR"}}, "key": {"[1]": {"biological_target": "active human C1s purified from human serum (CompTech, Tyler, TX, catalog number A104) (human) (UniProt P09871)", "sequence (P09871 16-437, chain 1 of 2)": "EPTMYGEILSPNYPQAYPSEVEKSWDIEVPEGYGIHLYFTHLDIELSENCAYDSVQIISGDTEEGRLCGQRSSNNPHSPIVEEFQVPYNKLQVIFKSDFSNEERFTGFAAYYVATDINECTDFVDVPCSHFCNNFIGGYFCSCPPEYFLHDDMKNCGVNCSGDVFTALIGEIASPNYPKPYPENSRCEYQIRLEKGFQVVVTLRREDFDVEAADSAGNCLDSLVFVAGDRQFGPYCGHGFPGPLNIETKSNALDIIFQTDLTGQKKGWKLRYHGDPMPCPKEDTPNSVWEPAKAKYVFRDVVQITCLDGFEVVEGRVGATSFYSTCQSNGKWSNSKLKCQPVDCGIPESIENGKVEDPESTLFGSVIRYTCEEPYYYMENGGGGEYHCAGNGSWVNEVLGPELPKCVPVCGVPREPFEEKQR", "sequence (P09871 438-688, chain 2 of 2)": "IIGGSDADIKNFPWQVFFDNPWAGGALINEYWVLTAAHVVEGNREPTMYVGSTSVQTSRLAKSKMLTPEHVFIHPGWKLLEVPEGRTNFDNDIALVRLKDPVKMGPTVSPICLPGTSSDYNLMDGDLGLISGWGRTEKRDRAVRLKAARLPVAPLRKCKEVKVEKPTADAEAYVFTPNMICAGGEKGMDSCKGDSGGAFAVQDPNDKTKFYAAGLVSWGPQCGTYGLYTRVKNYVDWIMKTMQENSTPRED", "experiment": "cell-based or functional assay"}, "[2]": {"biological_target": "active human C1s purified from human serum (CompTech, Tyler, TX, catalog number A104) (human) (UniProt P09871)", "experiment": "SPR, antibody captured via anti-human Fc, C1s in solution"}}, "data": [{"binder": "B1", "values": [{"measurement": "IC50, inhibition of C3b deposition on sensitized hRBCs in 7.5% human serum (flow cytometry), Donor A", "setting": "[1]", "value": 52.9, "unit": "nM"}, {"measurement": "IC50, inhibition of C3b deposition on sensitized hRBCs in 7.5% human serum (flow cytometry), Donor B (1)", "setting": "[1]", "value": 238, "unit": "nM"}, {"measurement": "IC50, inhibition of C3b deposition on sensitized hRBCs in 7.5% human serum (flow cytometry), Donor B (2)", "setting": "[1]", "value": 688, "unit": "nM"}, {"measurement": "IC50, inhibition of sensitized hRBC lysis in 25% human serum, Donor 1", "setting": "[1]", "value": 20.9, "unit": "nM"}, {"measurement": "IC50, inhibition of sensitized hRBC lysis in 25% human serum, Donor 2", "setting": "[1]", "value": 30.7, "unit": "nM"}, {"measurement": "IC50, inhibition of sensitized hRBC lysis in 25% human serum, Donor 3", "setting": "[1]", "value": 14.6, "unit": "nM"}, {"measurement": "Kd", "setting": "[2]", "value": 3.77, "unit": "nM"}, {"measurement": "koff", "setting": "[2]", "value": 0.00134, "unit": "s⁻¹"}, {"measurement": "kon", "setting": "[2]", "value": 357000, "unit": "M⁻¹ s⁻¹"}]}]}
